Test results taken from publication PMC3437207, “G-quadruplex recognition activities of E. Coli MutS”.
Changes are numbered by the printed parent chain.

Columns and labels:
MutS F36A [1] = biological target: T1, MutS F36A (Escherichia coli, UniProt P23909 1-853, F36A); test: EMSA; 19-150 nM protein; no nucleotide; 5 mM Mg2+; 20 mM Tris pH 7.6, 5 mM MgCl2, 1 mM DTT, 50 ug/ml BSA, 10 mM KCl, 200 fmol homoduplex competitor, 10-20 fmol labeled DNA in 20 ul; 6% native PAGE 0.5X TBE with; conditions: protein: recombinant; tags: His; chain copies: 2; label: 5' 32P; blunt; single G-T mismatch at position 14 of strand 1
T1 sequence: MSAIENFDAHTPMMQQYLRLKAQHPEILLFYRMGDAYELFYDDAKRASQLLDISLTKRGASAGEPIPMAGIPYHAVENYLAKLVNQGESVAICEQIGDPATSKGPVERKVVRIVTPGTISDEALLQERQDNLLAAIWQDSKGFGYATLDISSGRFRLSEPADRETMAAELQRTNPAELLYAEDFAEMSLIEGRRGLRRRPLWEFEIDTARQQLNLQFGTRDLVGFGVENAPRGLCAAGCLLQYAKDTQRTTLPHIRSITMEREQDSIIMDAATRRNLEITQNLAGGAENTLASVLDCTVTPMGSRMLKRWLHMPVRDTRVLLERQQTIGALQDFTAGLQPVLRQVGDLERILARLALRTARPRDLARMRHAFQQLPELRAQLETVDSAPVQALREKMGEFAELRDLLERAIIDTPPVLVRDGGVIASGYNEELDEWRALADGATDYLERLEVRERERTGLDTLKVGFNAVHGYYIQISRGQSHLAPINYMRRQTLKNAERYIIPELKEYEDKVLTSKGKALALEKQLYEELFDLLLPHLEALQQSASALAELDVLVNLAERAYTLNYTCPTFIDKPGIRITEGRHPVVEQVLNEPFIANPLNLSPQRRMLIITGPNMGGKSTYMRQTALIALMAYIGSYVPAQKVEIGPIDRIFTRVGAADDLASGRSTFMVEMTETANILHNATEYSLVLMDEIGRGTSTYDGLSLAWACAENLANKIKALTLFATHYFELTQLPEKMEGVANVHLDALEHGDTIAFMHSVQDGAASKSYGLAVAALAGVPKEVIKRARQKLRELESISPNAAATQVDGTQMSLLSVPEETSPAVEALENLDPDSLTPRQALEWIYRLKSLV

MutS F36A [2] = biological target: T1, MutS F36A; test: EMSA; 38-150 nM protein; 20 mM Tris pH 7.6, 5 mM MgCl2, 1 mM DTT, 50 ug/ml BSA, 10 mM KCl, 200 fmol homoduplex competitor, 10-20 fmol labeled DNA in 20 ul; 6% native PAGE 0.5X TBE with; conditions: protein: recombinant; tags: His; chain copies: 2; label: 32P; blunt

B1: G-T mismatch heteroduplex (dsDNA)
DNA 1: CTAGCAAGCTTTCGATTCTAGAAATTCGGC
DNA 2: GCCGAATTTCTAGAATTGAAAGCTTGCTAG
B1: no binding (MutS F36A [1]).

B2: Homoduplex (dsDNA)
DNA 1: B1 DNA 1 with G14A
DNA 2: B1 DNA 2
B2: no binding (MutS F36A [2]).
